Results from US20250277029A1 (Amgen, published 2025).
Substitutions are numbered along the chain they refer to.

Experiments:
[1] = molecular target: T1, human cannabinoid receptor 1 (huCB1), full length, expressed on cells (human, UniProt P21554 1-472); test: KinExA on-cell ranking, HEK 293T cells expressing full length CB1; %IFF of LIBC523661 divided by %IFF of antibody
T1 construct: Used for all assays on cells: stably transfected CHO / CHOK1 cells (cAMP assays) and transiently transfected HEK 293T cells (KinExA, FACS); also called Full length hu CB1; wt huCB1

[2] = molecular target: T1, human cannabinoid receptor 1 (huCB1), …; test: cell-based or functional assay
[3] = molecular target: T1, human cannabinoid receptor 1 (huCB1), …; test: cell-based or functional assay; remark: listed apart in the source
[4] = molecular target: T1, human cannabinoid receptor 1 (huCB1), …; test: cell-based or functional assay; remark: listed apart in the source
[5] = molecular target: T1, human cannabinoid receptor 1 (huCB1), …; test: cell-based or functional assay; remark: listed apart in the source
[6] = molecular target: T2, huCB1 nanodisc (CB1-ND) (human, UniProt P21554 99-414); test: Octet BLI; antibody captured by anti-human Fc, CB1-nanodisc in solution, 1:1 model
T2 construct: The His-tagged CB1 is embedded in a POPC lipid nanodisc with MSP1D1 scaffold protein (molar ratio 480:8:1); also called huCB1-ND; #CB1-008

[7] = molecular target: T1, human cannabinoid receptor 1 (huCB1), …; test: cell-based or functional assay; remark: listed apart in the source
[8] = molecular target: T1, human cannabinoid receptor 1 (huCB1), …; test: cell-based or functional assay; remark: listed apart in the source
[9] = molecular target: T1, human cannabinoid receptor 1 (huCB1), …; test: cell-based or functional assay; remark: listed apart in the source
[10] = molecular target: T3, human cannabinoid receptor type 2 (CB2) (human, UniProt P34972 1-360); test: FACS on transfected HEK293T cells
T3 construct: also called huCB2; full length hu CB2

[11] = molecular target: T4, mouse CB1 (mouse, UniProt P47746 1-473); test: FACS on transfected HEK293T cells
T4 construct: also called muCB1; murine CB1

[12] = molecular target: T1, human cannabinoid receptor 1 (huCB1), …; test: KinExA on-cell ranking, HEK 293T cells expressing full length CB1; reference antibody of the ratio
[13] = molecular target: T5, mouse CB1, full length, expressed on cells (mouse, UniProt P47746 1-473); test: FACS on transiently transfected HEK293T cells
T5 construct: Transiently expressed on HEK293T cells; also called Full length mu CB1; muCB1

[14] = molecular target: T6, truncated human CB1 (devoid of the 1-98 aa N-term), expressed on cells (human, UniProt P21554 99-472); test: FACS on transiently transfected HEK293T cells
T6 construct: Transiently expressed on HEK293T cells; also called Truncated hu CB1; N-term truncated human CB1

[15] = molecular target: T1, human cannabinoid receptor 1 (huCB1), …; test: FACS on transiently transfected HEK293T cells
[16] = molecular target: T7, human cannabinoid receptor type 2 (CB2), full length, expressed on cells (human, UniProt P34972 1-360); test: FACS on transiently transfected HEK293T cells
T7 construct: Transiently expressed on HEK293T cells; also called Full length hu CB2; huCB2

[17] = molecular target: T3, human cannabinoid receptor type 2 (CB2); test: fold over mock (Table 14)
[18] = molecular target: T4, mouse CB1; test: fold over mock (Table 14)
[19] = molecular target: T4, mouse CB1; test: binding to muCB1, fold over mock (method not described)
[20] = molecular target: T8, His-tagged huCB1-ND (human CB1 in nanodisc) (human); test: flow cytometry, yeast-displayed IgG, binding/display ratio
T8 construct: CB1 construct of Cell 167(3) (2016) 750-762 expressed in Sf9 cells; POPC:MSP1D1:CB1 480:8:1; also called CB1-nanodisc; huCB1-Nanodisc; not shown: histidine purification tag

[21] = molecular target: T9, GFP-fused huCB1-SMALP (human CB1 in styrene maleic acid lipoparticles) (human, UniProt P21554 1-472); test: flow cytometry, yeast-displayed IgG, GFP MFI
T9 construct: Prepared as in Luna V. et al. 2018; also called huCB1-GFP-SMALP; wtCB1-SMALP; not shown: GFP fusion

[22] = molecular target: T3, human cannabinoid receptor type 2 (CB2); test: binding to huCB2, fold over mock (method not described)
[23] = molecular target: T8, His-tagged huCB1-ND (human CB1 in …); test: flow cytometry, yeast-displayed IgG, huCB1-ND over empty-ND
[24] = molecular target: T10, full length human CB1 expressed on cells (human, UniProt P21554 1-472); test: KinExA, on HEK 293T cells expressing full length CB1
T10 construct: also called huCB1; full length hu CB1
T10 sequence (P21554 whole entry): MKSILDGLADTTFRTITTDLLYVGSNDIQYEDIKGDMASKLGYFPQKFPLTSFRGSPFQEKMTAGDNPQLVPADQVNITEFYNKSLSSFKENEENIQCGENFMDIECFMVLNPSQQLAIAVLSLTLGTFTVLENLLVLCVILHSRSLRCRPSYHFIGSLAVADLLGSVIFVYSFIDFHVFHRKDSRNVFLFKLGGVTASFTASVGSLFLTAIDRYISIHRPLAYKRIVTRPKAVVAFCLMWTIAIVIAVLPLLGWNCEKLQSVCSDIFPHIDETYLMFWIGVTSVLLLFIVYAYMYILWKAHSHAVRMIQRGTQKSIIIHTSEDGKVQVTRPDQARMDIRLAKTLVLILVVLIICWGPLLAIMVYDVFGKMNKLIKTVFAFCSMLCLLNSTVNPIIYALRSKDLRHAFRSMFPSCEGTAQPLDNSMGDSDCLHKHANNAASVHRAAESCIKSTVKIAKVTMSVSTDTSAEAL

T2 sequence (P21554 99-414 limits assumed): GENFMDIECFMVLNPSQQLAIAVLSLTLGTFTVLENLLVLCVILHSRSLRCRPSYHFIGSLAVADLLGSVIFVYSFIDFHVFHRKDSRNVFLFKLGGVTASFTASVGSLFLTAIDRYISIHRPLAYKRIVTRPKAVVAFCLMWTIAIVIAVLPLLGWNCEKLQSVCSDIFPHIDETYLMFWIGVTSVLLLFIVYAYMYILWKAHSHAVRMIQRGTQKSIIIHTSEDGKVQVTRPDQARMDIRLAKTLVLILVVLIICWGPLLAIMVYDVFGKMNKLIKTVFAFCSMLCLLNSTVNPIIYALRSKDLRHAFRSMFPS
T1 sequence (P21554 whole entry): as the sequence (P21554 whole entry) above
T7 sequence (P34972 whole entry): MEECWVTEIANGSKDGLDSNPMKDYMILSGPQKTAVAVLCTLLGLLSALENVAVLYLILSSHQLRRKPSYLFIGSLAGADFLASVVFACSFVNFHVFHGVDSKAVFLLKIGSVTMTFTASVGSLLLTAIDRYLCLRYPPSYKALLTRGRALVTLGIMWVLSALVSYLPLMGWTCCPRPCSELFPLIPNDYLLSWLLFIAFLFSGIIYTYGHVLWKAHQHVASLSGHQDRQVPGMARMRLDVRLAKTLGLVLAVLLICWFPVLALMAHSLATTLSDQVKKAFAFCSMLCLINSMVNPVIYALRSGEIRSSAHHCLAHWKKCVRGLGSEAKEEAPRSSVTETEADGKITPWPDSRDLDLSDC
T3 sequence (P34972 whole entry): as above
T6 sequence (P21554 99-472): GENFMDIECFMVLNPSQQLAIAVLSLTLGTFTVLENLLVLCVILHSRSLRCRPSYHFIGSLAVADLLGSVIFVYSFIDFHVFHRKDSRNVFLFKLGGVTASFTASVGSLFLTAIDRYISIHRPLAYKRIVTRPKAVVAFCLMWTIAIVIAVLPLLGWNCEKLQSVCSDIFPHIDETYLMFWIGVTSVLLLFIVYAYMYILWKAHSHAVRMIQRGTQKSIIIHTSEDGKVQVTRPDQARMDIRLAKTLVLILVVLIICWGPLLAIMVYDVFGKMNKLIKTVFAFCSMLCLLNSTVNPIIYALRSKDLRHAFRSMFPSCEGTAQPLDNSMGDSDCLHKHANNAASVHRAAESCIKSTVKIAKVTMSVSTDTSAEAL
T5 sequence (P47746 whole entry): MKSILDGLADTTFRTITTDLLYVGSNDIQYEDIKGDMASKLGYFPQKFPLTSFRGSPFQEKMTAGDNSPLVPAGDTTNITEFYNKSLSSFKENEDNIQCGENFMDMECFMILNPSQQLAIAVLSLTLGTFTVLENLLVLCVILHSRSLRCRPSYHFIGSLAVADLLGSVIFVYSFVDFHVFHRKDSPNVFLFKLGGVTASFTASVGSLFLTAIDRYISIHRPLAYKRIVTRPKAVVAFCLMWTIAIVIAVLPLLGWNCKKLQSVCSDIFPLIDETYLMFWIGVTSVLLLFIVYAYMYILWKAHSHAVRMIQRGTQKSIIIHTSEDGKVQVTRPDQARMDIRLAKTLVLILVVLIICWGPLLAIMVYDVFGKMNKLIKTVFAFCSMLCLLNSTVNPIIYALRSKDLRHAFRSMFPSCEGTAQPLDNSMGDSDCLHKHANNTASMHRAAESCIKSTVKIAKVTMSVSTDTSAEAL
T4 sequence (P47746 whole entry): as above
T8 sequence (P21554 99-414): as the sequence (P21554 99-414 limits assumed) above
T9 sequence (P21554 whole entry, the tested form may be a part): as the sequence (P21554 whole entry) above

B1: LIBC527814-1 (antibody, V domains shown)
VH: QVQLQESGPGLVKPSQTLSLTCTVSGGSIRRGGDYWGWIRQHPGKGLEWIGHVYQTGSTKYNPSFKDRATISVNTYKNQFSLKLSSVTAADTAVYYCARNYDTLTGYSYYYYGMDVWGQGTTVTVSS
VL: DIQMTQSPSTLSASVGDRVTITCRASQSISNYLNWYQQKPGKAPKLLIYAASSLHSGVPSRFSGSGSGTDFTLTISSLQPEDFASYYCQQYQSYPLTFGQGTKVEIKR
notes: Expressed as IgG1 SEFL2 mAb
Relative binding (KinExA, on cell; vs LIBC523661 mAb) [1]: 1.9 ratio | IC50 (nM), antagonist assay [2]: 3.8 nM | Mean IC50 (nM), cAMP antagonist assay [3]: 2.97 nM | Mean IC50, -fold vs Rimo [3]: 0.99 fold vs Rimonabant | n = 1 IC50 (nM), cAMP antagonist assay [3]: 4.72 nM | n = 1 IC50, -fold vs Rimo [3]: 1.12 fold vs Rimonabant | n = 2 IC50 (nM), cAMP antagonist assay [3]: 1.22 nM | n = 2 IC50, -fold vs Rimo [3]: 0.68 fold vs Rimonabant | IC50, nM (CP agonist) [4]: 2.1 nM | Mean IC50 (nM, n = 3), cAMP antagonist assay [5]: 2.07 nM | Kd [6]: 35 nM | koff [6]: 0.00198 s⁻¹ | kon [6]: 56600 M⁻¹ s⁻¹

B2: LIBC528116-1 (antibody, V domains shown)
VH: B1 VH with G37A, Q55Y, K60N, S64R, L104V
VL: B1 VL with M4L
notes: Expressed as IgG1 SEFL2 mAb; also called 37940-4
Mean IC50 (nM), cAMP antagonist assay [3]: 2.4 nM | n = 1 IC50 (nM), cAMP antagonist assay [3]: 3.93 nM | n = 2 IC50 (nM), cAMP antagonist assay [3]: 0.88 nM | IC50, nM (CP agonist) [4]: 1.8 nM | Mean IC50 (nM, n = 3), cAMP antagonist assay [5]: 1.77 nM | Antagonist assay IC50 (nM), 2-AG [7]: 7.2 nM | Antagonist assay IC50 (nM), Anandamide [7]: 17 nM | Antagonist assay IC50 (nM), CP 55,940 [7]: 1.8 nM | Inverse agonist assay IC50 [7]: 31.7 nM | IC50 [8]: 2.7 nM | Kd [6]: 29 nM

B3: 10D10 (antibody, V domains shown)
VH: QVQLQESGPGLVKPSQTLSLTCTVSGGSIRRGGDYWSWIRQHPGKGLEWIGYIYYSGSTNYNPSLKSRATISVDTSKNQFSLKLSSVTAADTAVYYCARDYDILTGYSYYYYGMDVWGQGTTVTVSS
VL: not shown
notes: Parent antibody from XenoMouse; also called 10D10 antibody
IC50 (nM), antagonist assay [2]: 144 nM | Mean IC50 (nM), cAMP antagonist assay [3]: 80.8 nM | n = 1 IC50 (nM), cAMP antagonist assay [3]: 118 nM | n = 2 IC50 (nM), cAMP antagonist assay [3]: 43.4 nM | IC50, nM (CP agonist) [4]: 121 nM | Mean IC50 (nM, n = 3), cAMP antagonist assay [5]: 120 nM | Antagonist assay IC50 (nM), 2-AG [7]: 178 nM | Antagonist assay IC50 (nM), Anandamide [7]: 6040 nM | Antagonist assay IC50 (nM), CP 55,940 [7]: 120 nM | Inverse agonist assay IC50 [7]: 295 nM | IC50, nM (TR-FRET cAMP assay, CP55,940 and Forskolin) [9]: 120 nM | Kd [6]: 755 nM

B4: LIBC529593-1 (antibody, V domains shown)
VH: B3 VH with Y52H, K66R, A69V, T70R, M114L
VL: not shown
binding result [10]: no binding | binding result [11]: no binding

B5: LIBC523661-1 (antibody, V domains shown)
VH: B1 VH with G37S, V53I, Q55Y, T56E, D67G, N100D, T103P, L104V, Y107H
VL: DIVMTQSPLSLPVTPGEPASISCRSSQSLLTSSGYNYVDWYLQKPGQSPQLLIYQGSNRASGVPDRFSGSGSGTDFTLKISRVEAEDVGVYYCRQARAIPRTFGQGTKVEIKR
notes: Expressed as IgG1 SEFL2 mAb
Mean IC50 (nM), cAMP antagonist assay [3]: 3.3 nM | Mean IC50, -fold vs Rimo [3]: 1.1 fold vs Rimonabant | n = 1 IC50 (nM), cAMP antagonist assay [3]: 5.24 nM | n = 1 IC50, -fold vs Rimo [3]: 1.24 fold vs Rimonabant | n = 2 IC50 (nM), cAMP antagonist assay [3]: 1.35 nM | n = 2 IC50, -fold vs Rimo [3]: 0.75 fold vs Rimonabant | IC50, nM (CP agonist) [4]: 3.9 nM | Mean IC50 (nM, n = 3), cAMP antagonist assay [5]: 3.88 nM | Relative binding (KinExA, on cell; vs LIBC523661 mAb) [12]: 1 ratio | Kd [6]: 77 nM | koff [6]: 0.00275 s⁻¹ | kon [6]: 35700 M⁻¹ s⁻¹

B6: LIBC529593-1 (antibody, V domains shown)
VH: B3 VH with Y52H, K66R, A69V, T70R, M114L
VL: not shown
notes: Fully human antibody from the new XenoMouse campaign
MFI ratio (target- vs mock-transfected cells) [13]: 1 ratio | MFI ratio (target- vs mock-transfected cells) [14]: 495 ratio | MFI ratio (target- vs mock-transfected cells) [15]: 422 ratio | MFI ratio (target- vs mock-transfected cells) [16]: 1.1 ratio | IC50, nM (TR-FRET cAMP assay, CP55,940 and Forskolin) [9]: 6.4 nM

B7: LIBC523661-1 (antibody, IgG1, V domains shown)
VH: B1 VH with G37S, V53I, Q55Y, T56E, D67G, N100D, T103P, L104V, Y107H
VL: B5 VL
binding result [17]: no binding | binding result [18]: no binding | Fold over mock [19]: 0.7 fold | relative binding to 0.2 nM huCB1-ND (relative to 10D10N35Y) [20]: 4.03 fold | 100 nM huCB1-SMALP binding (normalized to 10D10) [21]: 8 fold | Fold over mock [22]: 0.8 fold | specific huCB1 binding (CB1 ND/Empty ND ratio) [23]: 9.32 ratio | Kd [24]: 0.064 nM

B8: LIBC560340-1 (antibody, V domains shown)
VH: QVQLQESGPGLVKPSQTLSLICIVSGGSIRRGGDYWNWIRQHPGKGLEWIGHIYYSGSKNYNPSLKSRVTISVDTSKNQFSLKLSSVTAADTAVYYCARGYDSSGYSYYYYGMDVWGQGTTVTVSS
VL: DIVMTQSPLSLPVTPGEPASISCRSSQSLLYSNGHNFLDWYLQKPGQSPQLLIYLGSNRASGVPDRFSGSGSGTDFTLKISRVEAEDVGVYYCMQALQTPRTFGGGTKVEIKR
notes: as for B6
MFI ratio (target- vs mock-transfected cells) [13]: 1 ratio | MFI ratio (target- vs mock-transfected cells) [14]: 705 ratio | MFI ratio (target- vs mock-transfected cells) [15]: 578 ratio | MFI ratio (target- vs mock-transfected cells) [16]: 1 ratio | IC50, nM (TR-FRET cAMP assay, CP55,940 and Forskolin) [9]: 10.2 nM

B9: LIBC560340-1 (antibody, V domains shown)
VH: B8 VH
VL: B8 VL
binding result [10]: no binding | binding result [11]: no binding

B10: LIBC560657-1 (antibody, V domains shown)
VH: B8 VH with Q5R, S56T, S58T, N60Y
VL: B8 VL with F37Y, S61P, Y92F
notes: as for B6
MFI ratio (target- vs mock-transfected cells) [13]: 1 ratio | MFI ratio (target- vs mock-transfected cells) [14]: 444 ratio | MFI ratio (target- vs mock-transfected cells) [15]: 440 ratio | MFI ratio (target- vs mock-transfected cells) [16]: 1 ratio | IC50, nM (TR-FRET cAMP assay, CP55,940 and Forskolin) [9]: 7.5 nM

B11: LIBC560657-1 (antibody, V domains shown)
VH: B8 VH with Q5R, S56T, S58T, N60Y
VL: B8 VL with F37Y, S61P, Y92F
binding result [10]: no binding | binding result [11]: no binding
